Legend:
[1] = target: Thermoanaerobacter tengcongensis RecO (Thermoanaerobacter tengcongensis MB4) (UniProt Q8RB48); test: SPR; Biacore3000, 25°C; TTERecO amine-coupled to CM5 chip (4900 RU); TTERecR and mutants injected (0.0125-4 µM), 20 mM HEPES pH 7.4, 200 mM NaCl, 0.005% Tween 20; 1:1 Langmuir model; apparent KD
[2] = target: TTERecR_(1-166) C-terminal deletion mutant (Thermoanaerobacter tengcongensis MB4) (UniProt Q8RDI4); test: SEC; Superdex-200, 0.5 ml/min, 50 mM Tris-HCl pH 7.5, 300 mM NaCl, 200 µg/ml, absorbance at 280 nm
[3] = target: TTERecR_(1-180) C-terminal deletion mutant (Thermoanaerobacter tengcongensis MB4) (UniProt Q8RDI4); test: as above
[4] = target: TTERecR_(16-196) N-terminal deletion mutant (Thermoanaerobacter tengcongensis MB4) (UniProt Q8RDI4); test: as above
[5] = target: Thermoanaerobacter tengcongensis RecO (Thermoanaerobacter tengcongensis MB4) (UniProt Q8RB48); test: SEC + AUC; SEC: Superdex-200, 0.5 ml/min, 50 mM Tris-HCl pH 7.5, 300 mM NaCl, 200 µg/ml; AUC: 20°C, 1 mg/ml in 5 mM Tris-HCl pH 7.5, 50 mM NaCl, 60 000 rpm (TTERecR, TTERecO) or 55 000 rpm (TTERecOR complex), SEDFIT
[6] = target: Thermoanaerobacter tengcongensis RecR, full-length (Thermoanaerobacter tengcongensis MB4) (UniProt Q8RDI4); test: as above

TTERecR_(1-166) C-terminal deletion mutant (from UniProt Q8RDI4 1-166) (domain or fragment)
Kd [1]: 359 nM | stoichiometry N [2]: 2

TTERecR_(1-180) C-terminal deletion mutant (from UniProt Q8RDI4 1-180) (domain or fragment)
Kd [1]: 1480 nM | stoichiometry N [3]: 2

TTERecR_(16-196) N-terminal deletion mutant (from UniProt Q8RDI4 16-196) (domain or fragment)
stoichiometry N [4]: 2

Thermoanaerobacter tengcongensis RecR, full-length (from UniProt Q8RDI4 1-199) (natural protein)
Kd [1]: 186 nM | stoichiometry N (RecR per RecO) [5]: 2 | stoichiometry N [6]: 2

— paper PMC3510498
